Molecular target: E2 wild-type (E2wt) scaffold protein without an HIV-1 N-terminal fusion (Geobacillus stearothermophilus)
Test: SEC; Superdex200 gel filtration of E2wt in Solubility Buffer 2.2 (1x PBS, 50 mM L-Glutamine, 50 mM NaCl, 250 mM L-Arginine), 1 ml/min

## E2 wild-type (E2wt) scaffold protein without an HIV-1 N-terminal fusion (domain or fragment)
  stoichiometry N: 60
